Paper PMC9536601

These substances were tested against chimeric hexon of Ad5:H1.2 (Ad5 vector, hexon residues 112-593 from Ad1 hexon, HVR7 IGVTRTY), on the virion (human adenovirus type 5 | human adenovirus type 1) (UniProt P04133) (assay: SPR; Biacore T200; about 300 to 5,000 RU of Ad virions immobilised on a CM5 chip, coagulation factors flowed over at four concentrations, 50 uL/min; 10 mM HEPES, 150 mM NaCl, 1 mM CaCl2, 0.5 mM MgCl2, 0.1% BSA, 0.05% polysorbate 20, pH 7.4; global fit to a 1:1 kinetic interaction model, double referencing).
“bovine coagulation factor X (from UniProt P00743 41-492) (natural protein)” showed a Kd of 1100 nM. “mouse prothrombin (coagulation factor II) (from UniProt P19221 44-618) (natural protein)” gave a Kd of 1300 nM. Substance “mouse coagulation factor X (from UniProt O88947 41-481) (natural protein)” has a Kd of 5 nM. For “human coagulation factor X (from UniProt P00742 41-488) (natural protein)”, the Kd was 650 nM.

These substances were tested against chimeric hexon of the Ad5 vector Ad5:H57.1 (Ad5 hexon with residues 112-593 from Ad57 hexon, on virions) (human adenovirus 5 | human adenovirus 57) (UniProt P04133) (assay: SPR; Biacore T200; about 300 to 5,000 RU of Ad virions immobilised on a CM5 chip, coagulation factors flowed over at four concentrations, 50 uL/min; running buffer 10 mM HEPES, 150 mM NaCl, 1 mM CaCl2, 0.5 mM MgCl2, 0.1% BSA, 0.05% polysorbate 20, pH 7.4; regeneration with 3 mM EDTA; global fit to a 1:1 kinetic interaction model, double referencing).
In the case of “bovine coagulation factor X (from UniProt P00743 41-492) (natural protein)”, the Kd is reported as 28 nM, the koff is reported as 0.00342 s⁻¹ and the kon is reported as 121000 M⁻¹ s⁻¹. With “mouse prothrombin (coagulation factor II) (from UniProt P19221 44-618) (natural protein)” the Kd was 10 nM, the koff was 0.00031 s⁻¹ and the kon was 29800 M⁻¹ s⁻¹. Work on “mouse coagulation factor X (from UniProt O88947 41-481) (natural protein)” yielded a Kd of 0.65 nM, a koff of 9.23e-05 s⁻¹ and a kon of 143000 M⁻¹ s⁻¹. Substance “human coagulation factor X (from UniProt P00742 41-488) (natural protein)” has a Kd of 58 nM, a koff of 0.00316 s⁻¹ and a kon of 54300 M⁻¹ s⁻¹.

What follows are substances tested against hexon of the Ad5 vector Ad5.6 (on virions) (human adenovirus 5) (UniProt P04133) in the same assay as above.
Work on “bovine coagulation factor X (from UniProt P00743 41-492) (natural protein)” yielded a Kd of 1620 nM, a koff of 0.167 s⁻¹ and a kon of 104000 M⁻¹ s⁻¹. Substance “mouse prothrombin (coagulation factor II) (from UniProt P19221 44-618) (natural protein)” has a Kd of 420 nM, a koff of 0.026 s⁻¹ and a kon of 62400 M⁻¹ s⁻¹. “mouse coagulation factor X (from UniProt O88947 41-481) (natural protein)” was tested, and the Kd was 0.37 nM, the koff was 0.000115 s⁻¹ and the kon was 310000 M⁻¹ s⁻¹. For “human coagulation factor X (from UniProt P00742 41-488) (natural protein)”, the Kd was 0.94 nM, the koff was 0.000127 s⁻¹ and the kon was 135000 M⁻¹ s⁻¹.

Each substance was assayed against hexon of the Ad5 vector Ad5.10 (Ad5 hexon with HVR1 of Ad6 hexon, on virions) (human adenovirus 5) (UniProt P04133) in the same assay as above.
“bovine coagulation factor X (from UniProt P00743 41-492) (natural protein)” was tested, and the Kd was 276 nM, the koff was 0.151 s⁻¹ and the kon was 549000 M⁻¹ s⁻¹. “mouse prothrombin (coagulation factor II) (from UniProt P19221 44-618) (natural protein)” was tested, and the Kd was 356 nM, the koff was 0.06 s⁻¹ and the kon was 168000 M⁻¹ s⁻¹. In the case of “mouse coagulation factor X (from UniProt O88947 41-481) (natural protein)”, the Kd is reported as 0.58 nM, the koff is reported as 0.00014 s⁻¹ and the kon is reported as 240000 M⁻¹ s⁻¹. “human coagulation factor X (from UniProt P00742 41-488) (natural protein)” was tested, and the Kd was 1.1 nM, the koff was 0.000122 s⁻¹ and the kon was 112000 M⁻¹ s⁻¹.

The substances below were run against hexon of the Ad5 vector Ad5.5 (on virions) (human adenovirus 5) (UniProt P04133) in the same assay as above.
Substance “bovine coagulation factor X (from UniProt P00743 41-492) (natural protein)” has a Kd of 438 nM, a koff of 0.169 s⁻¹ and a kon of 387000 M⁻¹ s⁻¹. “mouse prothrombin (coagulation factor II) (from UniProt P19221 44-618) (natural protein)” showed a Kd of 216 nM, a koff of 0.0676 s⁻¹ and a kon of 314000 M⁻¹ s⁻¹. “mouse coagulation factor X (from UniProt O88947 41-481) (natural protein)” gave a Kd of 2.5 nM, a koff of 0.00104 s⁻¹ and a kon of 416000 M⁻¹ s⁻¹. “human coagulation factor X (from UniProt P00742 41-488) (natural protein)” gave a Kd of 5.2 nM, a koff of 0.000661 s⁻¹ and a kon of 126000 M⁻¹ s⁻¹.

These substances were tested against chimeric hexon of the Ad5 vector Ad5:H1.2 (Ad1 hexon section with HVR7 mutations, on virions) (human adenovirus 5 | human adenovirus 1) (UniProt P04133) in the same assay as above.
For “bovine coagulation factor X (from UniProt P00743 41-492) (natural protein)”, the Kd was 1100 nM, the koff was 0.085 s⁻¹ and the kon was 77400 M⁻¹ s⁻¹. “mouse prothrombin (coagulation factor II) (from UniProt P19221 44-618) (natural protein)” gave a Kd of 1300 nM, a koff of 0.0483 s⁻¹ and a kon of 36800 M⁻¹ s⁻¹. Work on “mouse coagulation factor X (from UniProt O88947 41-481) (natural protein)” yielded a Kd of 5 nM, a koff of 0.00084 s⁻¹ and a kon of 169000 M⁻¹ s⁻¹. Substance “human coagulation factor X (from UniProt P00742 41-488) (natural protein)” has a Kd of 650 nM, a koff of 0.0631 s⁻¹ and a kon of 97200 M⁻¹ s⁻¹.

These substances were tested against hexon of the Ad5 vector Ad5.4 (HVR7 mutant, on virions) (human adenovirus 5) (UniProt P04133) in the same assay as above.
In the case of “bovine coagulation factor X (from UniProt P00743 41-492) (natural protein)”, the Kd is reported as 540 nM, the koff is reported as 0.147 s⁻¹ and the kon is reported as 274000 M⁻¹ s⁻¹. Substance “mouse prothrombin (coagulation factor II) (from UniProt P19221 44-618) (natural protein)” has a Kd of 36000 nM, a koff of 0.281 s⁻¹ and a kon of 7770 M⁻¹ s⁻¹. Work on “mouse coagulation factor X (from UniProt O88947 41-481) (natural protein)” yielded a Kd of 1.9 nM, a koff of 0.000479 s⁻¹ and a kon of 248000 M⁻¹ s⁻¹. “human coagulation factor X (from UniProt P00742 41-488) (natural protein)” was tested, and the Kd was 10 nM, the koff was 0.000338 s⁻¹ and the kon was 33900 M⁻¹ s⁻¹.

The substances below were run against chimeric hexon of the Ad5 vector Ad5:H1.1 (Ad5 hexon with residues 112-593 from Ad1 hexon, on virions) (human adenovirus 5 | human adenovirus 1) (UniProt P04133) in the same assay as above.
Substance “bovine coagulation factor X (from UniProt P00743 41-492) (natural protein)” has a Kd of 220 nM, a koff of 0.0512 s⁻¹ and a kon of 236000 M⁻¹ s⁻¹. In the case of “mouse prothrombin (coagulation factor II) (from UniProt P19221 44-618) (natural protein)”, the Kd is reported as 16 nM, the koff is reported as 0.00118 s⁻¹ and the kon is reported as 71600 M⁻¹ s⁻¹. In the case of “mouse coagulation factor X (from UniProt O88947 41-481) (natural protein)”, the Kd is reported as 0.82 nM, the koff is reported as 0.000372 s⁻¹ and the kon is reported as 454000 M⁻¹ s⁻¹. Substance “human coagulation factor X (from UniProt P00742 41-488) (natural protein)” has a Kd of 300 nM, a koff of 0.077 s⁻¹ and a kon of 253000 M⁻¹ s⁻¹.

Each substance was assayed against chimeric hexon of the Ad5 vector Ad5:H6.1 (Ad5 hexon with residues 112-593 from Ad6 hexon, on virions) (human adenovirus 5 | human adenovirus 6) (UniProt P04133) in the same assay as above.
With “bovine coagulation factor X (from UniProt P00743 41-492) (natural protein)” the Kd was 97 nM, the koff was 0.0132 s⁻¹ and the kon was 135000 M⁻¹ s⁻¹. With “mouse prothrombin (coagulation factor II) (from UniProt P19221 44-618) (natural protein)” the Kd was 8.6 nM, the koff was 0.000535 s⁻¹ and the kon was 62200 M⁻¹ s⁻¹. For “mouse coagulation factor X (from UniProt O88947 41-481) (natural protein)”, the Kd was 0.31 nM, the koff was 3.78e-05 s⁻¹ and the kon was 122000 M⁻¹ s⁻¹. With “human coagulation factor X (from UniProt P00742 41-488) (natural protein)” the Kd was 43 nM, the koff was 0.00914 s⁻¹ and the kon was 214000 M⁻¹ s⁻¹.

The substances below were run against hexon of wild-type human adenovirus type 1 (on virions) (human adenovirus 1) in the same assay as above.
“bovine coagulation factor X (from UniProt P00743 41-492) (natural protein)” gave a Kd of 160 nM, a koff of 0.0381 s⁻¹ and a kon of 232000 M⁻¹ s⁻¹. Work on “mouse prothrombin (coagulation factor II) (from UniProt P19221 44-618) (natural protein)” yielded a Kd of 14 nM, a koff of 0.000687 s⁻¹ and a kon of 49800 M⁻¹ s⁻¹. In the case of “mouse coagulation factor X (from UniProt O88947 41-481) (natural protein)”, the Kd is reported as 0.31 nM, the koff is reported as 7.73e-05 s⁻¹ and the kon is reported as 253000 M⁻¹ s⁻¹. “human coagulation factor X (from UniProt P00742 41-488) (natural protein)” was tested, and the Kd was 220 nM, the koff was 0.0501 s⁻¹ and the kon was 232000 M⁻¹ s⁻¹.
